molecular target: T1, His6-PhoP (Actinosynnema pretiosum X47 (derived from A. pretiosum subsp. auranticum ATCC 31565)) (UniProt A0A290ZEW1); assay: EMSA; conditions: EMSA: 100 fmol biotin probe, binding buffer (composition not given), poly(dI-dC), 20-30 min at room temperature, 8% native PAGE; protein dialyzed in 50 mM …
T1 sequence: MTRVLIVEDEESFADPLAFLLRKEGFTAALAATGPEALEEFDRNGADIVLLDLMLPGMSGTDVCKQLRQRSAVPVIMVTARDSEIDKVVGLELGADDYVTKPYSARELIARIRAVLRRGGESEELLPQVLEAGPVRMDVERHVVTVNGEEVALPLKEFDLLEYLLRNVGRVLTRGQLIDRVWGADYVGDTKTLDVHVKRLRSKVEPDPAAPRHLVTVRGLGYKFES

Sequence	binding
GTGACTGGAGTTCCTTACCCCGATCCGGTGACCGGGGCCGGCGGCCCAGCCCCGGTCCCGCGATCCGCGAAAGCAGCCGCGAACCGCCGCTGACCTGGTCGAACGGCCCGCTGGAAGATCGCTTGAGCACCGCCGACGACGAGCGTCGACGCCCCCGCCCCGCAGCGGGCGGGGGCAGTCCCCCGTTGGAGTGCTCAGCTCCCCCCGGCGACGGCCGTACTAGGCGGCGGTCGTGTAGGGAAAGA (double strand) [fliM promoter probe]	no binding
GTGACTGGAGTTCCTTTTCGCGCAACAGCCGGTACCGGGTTCAGGTTAAACCGAGCAAGATAGCCCTAGAGGGGACACCAGCGGATACAGAGAGCAACAAAACAGGCACGTACAGAAGTCTTGTTAGCCCAGAAGGGTGATAAACGCCCCGATGTCGAGCGTTCCTCGCCACAGACACGTCACATCTGGCGAACTCGGTCGTTTGCTAGGCCGGGAAGGGAGAAGAGGGTAACGACGAGTCGTGTAGGGAAAGA (double strand) [ssgB promoter probe]	binds
TCTTTCCCTACACGACCGGCTTCCGTCCTTGGATGTCGGGCATCGGGCCCGTCCGTGGGTCCGTGGCGTTACAAACGGCAGTGCGCCTTCACTCCTGAGGGGGAACGAAGGGCGGCCAGGGTGGAGAAGGCCCGGCCGCCCGTCACCCGTAAGGAACTCCAGTCAC (double strand) [swrD promoter probe]	no binding

— article PMC9019756
